Patent publication US20250075002A1

How the values were obtained:
[1] = biological target: MUC1 as expressed on normal activated human T cells (human) (UniProt P15941); test: FACS, PHA-L-activated human PBMC, live αβTCR+ gate, Donor 191271003C; antibody 10 µg/mL by paragraph 182
[2] = biological target: MUC1 as expressed on normal activated human T cells (human) (UniProt P15941); test: FACS, PHA-L-activated human PBMC, live αβTCR+ gate, Donor 191271715C; antibody 10 µg/mL by paragraph 182
[3] = biological target: MUC1 as expressed on normal activated human T cells (human) (UniProt P15941); test: FACS, PHA-L-activated human PBMC, live αβTCR+ gate, Donor 3011029; antibody 10 µg/mL by paragraph 182
[4] = biological target: MUC1 as expressed on normal activated human T cells (human) (UniProt P15941); test: FACS, PHA-L-activated human PBMC, live αβTCR+ gate, Donor 3009223; antibody 10 µg/mL by paragraph 182
[5] = biological target: MUC1 as expressed on normal activated human T cells (human) (UniProt P15941); test: FACS, PHA-L-activated human PBMC, live αβTCR+ gate, Donor 191180405C; antibody 10 µg/mL by paragraph 182
[6] = biological target: MUC1 as expressed on normal activated human T cells (human) (UniProt P15941); test: FACS, PHA-L-activated human PBMC, live αβTCR+ gate, Donor 190980805C; antibody 10 µg/mL by paragraph 182
[7] = biological target: human CD16B (NA1) on NK92mi cells (human) (UniProt O75015); test: flow cytometry on NK92mi/CD16B (NA1) cells; control
[8] = biological target: human CD16B (NA2) on NK92mi cells (human) (UniProt O75015); test: flow cytometry on NK92mi/CD16B (NA2) cells; control
[9] = biological target: human CD16A (V158) on NK92mi cells (human) (UniProt P08637); test: flow cytometry on NK92mi/CD16A cells (V158 by paragraph 201); control
[10] = biological target: MUC1 as expressed on normal activated human T cells (human) (UniProt P15941); test: FACS, PHA-L-activated human PBMC, live αβTCR+ gate, Donor 3011029; concentration of the isotype control not told
[11] = biological target: MUC1 as expressed on normal activated human T cells (human) (UniProt P15941); test: FACS, PHA-L-activated human PBMC, live αβTCR+ gate, Donor 3009223; concentration of the isotype control not told
[12] = biological target: MUC1 as expressed on normal activated human T cells (human) (UniProt P15941); test: FACS, PHA-L-activated human PBMC, live αβTCR+ gate, Donor 3011029; concentration of the isotype control not told; remark: listed apart in the source
[13] = biological target: MUC1 as expressed on normal activated human T cells (human) (UniProt P15941); test: FACS, PHA-L-activated human PBMC, live αβTCR+ gate, Donor 3009223; concentration of the isotype control not told; remark: listed apart in the source
[14] = biological target: MUC1 as expressed on normal activated human T cells (human) (UniProt P15941); test: FACS, PHA-L-activated human PBMC, live αβTCR+ gate, Donor 191271003C; concentration of the isotype control not told
[15] = biological target: MUC1 as expressed on normal activated human T cells (human) (UniProt P15941); test: FACS, PHA-L-activated human PBMC, live αβTCR+ gate, Donor 191271715C; concentration of the isotype control not told
[16] = biological target: MUC1 as expressed on normal activated human T cells (human) (UniProt P15941); test: FACS, PHA-L-activated human PBMC, live αβTCR+ gate, Donor 191271003C; concentration of the isotype control not told; remark: listed apart in the source
[17] = biological target: MUC1 as expressed on normal activated human T cells (human) (UniProt P15941); test: FACS, PHA-L-activated human PBMC, live αβTCR+ gate, Donor 191271715C; concentration of the isotype control not told; remark: listed apart in the source
[18] = biological target: MUC1 as expressed on normal activated human T cells (human) (UniProt P15941); test: FACS, PHA-L-activated human PBMC, live αβTCR+ gate, Donor 191180405C; concentration of the isotype control not told
[19] = biological target: MUC1 as expressed on normal activated human T cells (human) (UniProt P15941); test: FACS, PHA-L-activated human PBMC, live αβTCR+ gate, Donor 190980805C; concentration of the isotype control not told
[20] = biological target: MUC1 as expressed on normal activated human T cells (human) (UniProt P15941); test: FACS, PHA-L-activated human PBMC, live αβTCR+ gate, Donor 191180405C; concentration of the isotype control not told; remark: listed apart in the source
[21] = biological target: MUC1 as expressed on normal activated human T cells (human) (UniProt P15941); test: FACS, PHA-L-activated human PBMC, live αβTCR+ gate, Donor 190980805C; concentration of the isotype control not told; remark: listed apart in the source

Chain of MUC1 as expressed on normal activated human T cells (human) (P15941 24-1255): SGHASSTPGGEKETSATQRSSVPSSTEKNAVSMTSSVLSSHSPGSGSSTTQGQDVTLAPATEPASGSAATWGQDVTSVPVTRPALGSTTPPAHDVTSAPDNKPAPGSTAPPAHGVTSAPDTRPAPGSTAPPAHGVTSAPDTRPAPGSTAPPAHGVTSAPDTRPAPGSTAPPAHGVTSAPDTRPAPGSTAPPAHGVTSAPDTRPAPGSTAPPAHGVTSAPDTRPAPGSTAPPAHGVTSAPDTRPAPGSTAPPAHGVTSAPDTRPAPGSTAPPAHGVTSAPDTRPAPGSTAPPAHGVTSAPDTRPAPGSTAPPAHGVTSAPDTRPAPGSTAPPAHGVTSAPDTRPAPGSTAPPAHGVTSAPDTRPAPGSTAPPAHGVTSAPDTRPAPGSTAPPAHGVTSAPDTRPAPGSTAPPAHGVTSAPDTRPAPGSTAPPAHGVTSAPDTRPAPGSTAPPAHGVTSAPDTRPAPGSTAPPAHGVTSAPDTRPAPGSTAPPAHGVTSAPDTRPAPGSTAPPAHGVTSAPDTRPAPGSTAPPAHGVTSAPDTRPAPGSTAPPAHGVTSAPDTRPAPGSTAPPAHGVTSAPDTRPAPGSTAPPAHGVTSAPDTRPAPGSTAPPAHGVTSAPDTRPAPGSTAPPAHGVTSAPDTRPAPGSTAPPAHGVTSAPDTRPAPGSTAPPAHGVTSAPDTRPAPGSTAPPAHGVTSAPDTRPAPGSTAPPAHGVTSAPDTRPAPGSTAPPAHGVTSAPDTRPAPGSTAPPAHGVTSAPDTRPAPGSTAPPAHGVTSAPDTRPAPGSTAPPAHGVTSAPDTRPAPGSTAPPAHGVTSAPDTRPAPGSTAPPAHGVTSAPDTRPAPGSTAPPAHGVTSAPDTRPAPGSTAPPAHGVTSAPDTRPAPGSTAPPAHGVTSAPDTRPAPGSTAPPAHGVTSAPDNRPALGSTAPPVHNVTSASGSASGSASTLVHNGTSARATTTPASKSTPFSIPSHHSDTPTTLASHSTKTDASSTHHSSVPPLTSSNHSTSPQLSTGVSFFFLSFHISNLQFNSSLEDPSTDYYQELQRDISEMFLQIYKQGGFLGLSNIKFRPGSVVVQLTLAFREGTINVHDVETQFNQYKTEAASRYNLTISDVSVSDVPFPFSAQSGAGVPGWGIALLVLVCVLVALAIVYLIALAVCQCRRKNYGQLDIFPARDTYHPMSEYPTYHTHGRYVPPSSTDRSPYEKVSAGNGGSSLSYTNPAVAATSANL
Chain of human CD16A (V158) on NK92mi cells (human) (P08637 17-254 F176V limits assumed): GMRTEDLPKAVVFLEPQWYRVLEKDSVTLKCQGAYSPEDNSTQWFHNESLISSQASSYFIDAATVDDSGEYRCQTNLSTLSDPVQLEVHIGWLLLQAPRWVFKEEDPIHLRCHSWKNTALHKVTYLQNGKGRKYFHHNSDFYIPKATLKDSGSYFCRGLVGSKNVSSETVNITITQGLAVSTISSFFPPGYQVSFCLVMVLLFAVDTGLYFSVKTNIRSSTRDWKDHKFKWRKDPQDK
Chain of human CD16B (NA1) on NK92mi cells (human) (O75015 other isoform, or with tags, fused parts or gaps limits assumed): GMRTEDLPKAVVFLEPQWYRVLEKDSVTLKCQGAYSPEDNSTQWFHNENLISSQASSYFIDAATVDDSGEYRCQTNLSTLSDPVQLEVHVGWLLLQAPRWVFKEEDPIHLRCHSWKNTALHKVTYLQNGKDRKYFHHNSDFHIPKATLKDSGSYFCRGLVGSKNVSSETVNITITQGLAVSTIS
Chain of human CD16B (NA2) on NK92mi cells (human) (O75015 17-200 N65S limits assumed): as the sequence (O75015 other isoform, or with tags, fused parts or gaps limits assumed) above, with R20S, N49S, D66N, V90I counted along it

“16A (Biolegend, cat. #355608) (antibody)” showed a percent of αβTCR+ cells in the MUC1-positive gate (dashed box) [1] of 16.9% and a percent of αβTCR+ cells in the MUC1-positive gate (dashed box) [2] of 16.5%.
In the case of “HMFG1 (Abcam, cat. #ab215670) (antibody)”, the percent of αβTCR+ cells in the MUC1-positive gate (dashed box) [3] is reported as 23.2%, the percent of αβTCR+ cells in the MUC1-positive gate (dashed box) [4] is reported as 10% and the percent of αβTCR+ cells in the MUC1-positive gate (dashed box) [5] is reported as 28.1%. For the same substance, the percent of αβTCR+ cells in the MUC1-positive gate (dashed box) [6] was 28.2%.
Work on “Human IgG (control column of Tables 10-12) (antibody)” yielded an EC50 [7] of 10.3 µg/mL, an EMAX [7] of 7.46 and an EC50 [8] of 0.314 µg/mL. The EMAX [8] was 7.66, the EC50 [9] was 0.0112 µg/mL and the EMAX [9] was 7.55.
Isotype (antibody) showed a percent of αβTCR+ cells in the MUC1-positive gate (dashed box) [10] of 0.26%, a percent of αβTCR+ cells in the MUC1-positive gate (dashed box) [11] of 1.17% and a percent of αβTCR+ cells in the MUC1-positive gate (dashed box) [12] of 0.36%. The percent of αβTCR+ cells in the MUC1-positive gate (dashed box) [13] was 0.05%, the percent of αβTCR+ cells in the MUC1-positive gate (dashed box) [14] was 0.91% and the percent of αβTCR+ cells in the MUC1-positive gate (dashed box) [15] was 1.04%. It also gave a percent of αβTCR+ cells in the MUC1-positive gate (dashed box) [16] of 0.11%, a percent of αβTCR+ cells in the MUC1-positive gate (dashed box) [17] of 0.04% and a percent of αβTCR+ cells in the MUC1-positive gate (dashed box) [18] of 2.49%. For the same substance, the percent of αβTCR+ cells in the MUC1-positive gate (dashed box) [19] was 1.86%, the percent of αβTCR+ cells in the MUC1-positive gate (dashed box) [20] was 0.29% and the percent of αβTCR+ cells in the MUC1-positive gate (dashed box) [21] was 0.15%.
